Test results reported in the DeepSol protein solubility set.

Test: soluble on expression in E. coli; label from the status in PepcDB or PDB records

Sequence | soluble on expression in E. coli
DIGCYTLGALPPYEAINSCVDMGASITMAKGAADAGLFPAVSVIGDSTFTHSGITGLLDAINENSNITVIISDNESISMTGGQHSSAYGKVEAICRGIGVDPDHIRELLPVPKNHDELCSIIREEINYEGVSVIIPRRVCIQKHARDAKAAKRAKA | not soluble
MANAADDRRPKYQRIADTLREAIRSGEYGPGDRLPGENDLMATHGVARMTARQALSVLRDEGVAEARKGAGVFVREFRPLRRRGIQRLARQQWGNGRSIWSADIEDRSLDVDQVTVSEEAAPDGVAAVLDLADGETVCVRRRRFVLDGKPVLLATSYLPAALVAGSAITQEDTGKGGTYARLAELGHGPVHFREEIRSRMPSKAEASQLSVAAGTPVILICRTAFTDEGRAVEINEMTLDAASYVLEYDFDA | not soluble
DSLGWSNVDVLDRICEAYGFSQKIQLANHFDIASSSLSNRYTRGAISYDFAAHCALETGANLQWLLTGEGEAFVNNRESSDAKRIEGFTLSEEILKSDKQLSVDAQFFTKPLTDGMAIRSEGKIYFVDKQASLSDGLWLVDIKGAISIRELTKLPGRKLHVAGGKVPFECGIDDIKTLGRVVGVYSEVN | soluble
MAHHHHHHMAQNPWFVKKSKTLRTSQLEKFINKFNEEYEHLMHMTRFKYIKRTLESIKENSDLIINKKTFSILRISCVAQLQPKYLNKIDDGISVYLSNFMLKANHDVEGFCLCFNKIKLKEKESRVMNNDPSIMFVKISFKLLILVLKENYEIKAKINKIEPLKIHLDIFGIVEAIFSEDMFKDFHYDSRNNRFRREGKFFSLYDIVLFTIKKITYGDNGANVKVIGYF | not soluble
GMEPSAKHLQLQTLLSERHAYLMEGNREAMHQLLSSDFSFIDGQGRQFDAETYLDHYVDPDQIQWSNQISESMVVEVFETTALVQEIVEDHFSYGRSMYIGRFRSVSLYHWANEGWKWHFHQLTPLDPS | soluble
GPGSMALGSGIGLVPMWSSCPSVNPPTFPKGGIEILRQSLEAQEEVERTFREREAGHIECLNFKKSLRHLLRKQNERREELQLVEQRASERTQALLDELLIVVRERLKAMSPEGYQSITFDNGDMYEGNWKSCRMHGTGVMRRVADNDIYEGEWFFGVRNGNGMCCSPNFGTLYSGKWLAGKWHGRGELAEPEGLYIGDFVDGQIRGYGEYLYREGYAYKGDWVNGVYEGSGTFFYTNGARYEGQWRNGYEHGRGTMTYYNGDVYTGDWCNGRKHGTGTYTSKLLQYEGGWSSGAVHGIGKCTYADGSMYKGSWCRGLYDGDGEFVSQDKKCSYKGEFRGGKRCGRGVYQCGEVEYSGDWLDDRRHGVGEIKTRDGRVFRGTWSHDEPHCEVVPGCNLEGTSLSYCGGRGAPIAPEEPDPVLNMRLGLPDEVIDCMADAPT | not soluble
MSLSYSNILVAVAVTPESQQLLAKAVSIARPVKGHISLITLASDPEMYNQLAAPMLEDLRNVMQEETQSFLDKLIQDAGYPVDKTFIAYGELSEHILEVCRKHHFDLVICGNHNHSFFSRASCSAKRVITSSEVDVLLVPLTGDEGHHHHHH | soluble
GSHMARGKLKAPKWPILKNLELLQAQNYSRNIKTFPYKELNKSMYYDKWVCMCRCEDGALHFTQLKDSKTITTITTPNPRTGGEHPAIISRGPCNRLLLLYPGNQITILDSKTNKVLREIEVDSANEIIYMYGHNEVNTEYFIWADNRGTIGFQSYEDDSQYIVHSAKSDVEYSSGVLHKDSLLLALYSPDGILDVYNLSSPDQASSRFPVDEEAKIKEVKFADNGYWMVVECDQTVVCFDLRKDVGTLAYPTYTIPEFKTGTVTYDIDDSGKNMIAYSNESNSLTIYKFDKKTKNWTKDEESALCLQSDTADFTDMDVVCGDGGIAAILKTNDSFNIVALTP | soluble
MTKSQIMDLSNFYQDTDYPSGRLIALLILSLGLTPAEIANLKKADFDTTFNILSIEKSQMKRILKLPEDLLPFLLESLEEDGDLVFEHNGKPYSRQWFFNQLTDFLNEKNEQQLTAQLLREQFILKQKENGKTMTELSRLLGLKTPITLERYYRLEHHHHHH | not soluble
MSLLKLFDAHFHIIDYRFPLIANQSYLPPEFTVEDYLQRAKPLNICGGAVVSGSFQAFDQTYLLTALSVLGPNFVGVTQLPATVSDEEIIQLNQHGIRAVRFNLKRGGSESIHQLKYFAHRIYEMVRWHVEIYVDSKELGDLTNLLLELPAVSIDHLGLSQSGFSELLHLVEHGIKIKASGFGRVDFDVKKALQTIAQISPDALLFGTDLPSTRAPLPFLDSDIQLIQDLFDEELTEKILYRNACNFYSKNEGHHHHHH | soluble
